Results reported in patent US20260232827A1 (Zymeworks, published 2026).

B1: v21995 (palivizumab, anti-RSV negative control) (antibody, human IgG1, kappa, V domains shown)
VH: QVTLRESGPALVKPTQTLTLTCTFSGFSLSTSGMSVGWIRQPPGKALEWLADIWWDDKKDYNPSLKSRLTISKDTSKNQVVLKVTNMDPADTATYYCARSMITNWYFDVWGAGTTVTVSS
VL: DIQMTQSPSTLSASVGDRVTITCKSQLSVGYMHWYQQKPGKAPKLLIYDTSKLASGVPSRFSGSGSGTEFTLTISSLQPDDFATYYCFQGSGYPFTFGGGTKLEIKR
B2: v40554 (LALA) anti-NaPi2b antibody (antibody)
chain 1: not shown
chain 2: DVQMTQSPSSLSASVGDRVTITCRASQDVYSYLNWYQQKPGKAVKLLIYYTSRLQSGVPSRFSGSGSGTDYTLTISSLQPEDFATYYCQQYNIFPWTFGQGTKLEIKRTVAAPSVFIFPPSDEQLKSGTASVVCLLNNFYPREAKVQWKVDNALQSGNSQESVTEQDSKDSTYSLSSTLTLSKADYEKHKVYACEVTHQGLSSPVTKSFNRGEC

Assays:
[1] = target: T1, human sodium-dependent phosphate transporter 2B (NaPi2b) (human, UniProt O95436 1-690); test: flow cytometry on IGROV-1 cells (endogenous NaPi2b), 24 h at 4 C, anti-human IgG Fc AF647, APC-A GeoMean
T1 construct: UniProt ID is given as 095436 [sic]; also called hNaPi2b; Hu NaPi2b
T1 sequence: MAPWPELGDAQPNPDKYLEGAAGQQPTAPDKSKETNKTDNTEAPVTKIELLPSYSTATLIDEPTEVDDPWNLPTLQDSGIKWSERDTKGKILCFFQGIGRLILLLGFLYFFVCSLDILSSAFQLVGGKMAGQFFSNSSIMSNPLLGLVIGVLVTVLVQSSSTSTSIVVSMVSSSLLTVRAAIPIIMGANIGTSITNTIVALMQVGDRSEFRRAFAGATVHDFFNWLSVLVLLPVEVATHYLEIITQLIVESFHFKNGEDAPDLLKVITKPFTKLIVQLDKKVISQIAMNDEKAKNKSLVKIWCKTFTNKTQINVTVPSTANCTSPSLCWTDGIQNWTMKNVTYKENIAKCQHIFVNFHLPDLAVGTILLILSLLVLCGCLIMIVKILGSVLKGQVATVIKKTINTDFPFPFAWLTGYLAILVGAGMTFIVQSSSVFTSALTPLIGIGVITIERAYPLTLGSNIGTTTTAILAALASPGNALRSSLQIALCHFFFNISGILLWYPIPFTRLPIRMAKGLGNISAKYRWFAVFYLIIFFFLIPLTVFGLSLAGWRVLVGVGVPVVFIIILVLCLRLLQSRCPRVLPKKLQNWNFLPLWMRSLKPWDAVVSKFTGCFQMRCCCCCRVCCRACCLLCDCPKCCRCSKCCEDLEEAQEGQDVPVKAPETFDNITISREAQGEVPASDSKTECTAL

[2] = target: T2, Construct 7 (NaPi2b del 317-326) (human, UniProt O95436 1-690); test: flow cytometry, HEK293-6e cells transfected with Construct 7
T2 construct: Deletion construct on HEK293-6e cells; also called CL_#29921
T2 sequence: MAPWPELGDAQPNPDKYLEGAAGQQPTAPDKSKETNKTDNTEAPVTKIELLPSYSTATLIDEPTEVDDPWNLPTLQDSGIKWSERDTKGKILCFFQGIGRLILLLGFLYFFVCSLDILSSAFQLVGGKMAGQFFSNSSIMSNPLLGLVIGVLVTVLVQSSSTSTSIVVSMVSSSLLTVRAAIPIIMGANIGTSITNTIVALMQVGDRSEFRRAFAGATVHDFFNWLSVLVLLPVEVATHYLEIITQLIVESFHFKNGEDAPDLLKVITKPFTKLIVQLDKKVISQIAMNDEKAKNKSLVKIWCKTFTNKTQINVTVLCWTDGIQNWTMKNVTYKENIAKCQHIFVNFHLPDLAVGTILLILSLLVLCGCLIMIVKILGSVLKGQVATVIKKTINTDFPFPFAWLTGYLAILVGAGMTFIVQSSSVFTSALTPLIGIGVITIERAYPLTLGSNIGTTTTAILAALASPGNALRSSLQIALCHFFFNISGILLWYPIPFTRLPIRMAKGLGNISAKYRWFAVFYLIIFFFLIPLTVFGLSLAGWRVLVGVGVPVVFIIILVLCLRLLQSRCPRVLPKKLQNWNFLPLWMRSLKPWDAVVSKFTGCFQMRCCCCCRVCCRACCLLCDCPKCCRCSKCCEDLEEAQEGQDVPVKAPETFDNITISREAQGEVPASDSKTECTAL
Experimental: (§1) Following transfection, cells were seeded at 50,000 cells/well in conical-bottom 96-well plates and treated with a serial dilution of test antibody for 24 hours at 4° C. to prevent internalization. Cells were treated with final concentrations of all humanized antibodies of 200, 20, or 2 nM. Cells were treated with final concentrations of the reference anti-NaPi2a rabbit antibody of 50, 5, or 0.5 nM. […] Following incubation and washing, fluorescence was detected by flow cytometry on a BD LSRFortessa™ Cell Analyzer (BD Biosciences, Franklin Lake, NJ) with 1,000 minimum events collected per well. […] Background-subtracted AF647 Mean Fluorescence Intensity (MFI) values were calculated by subtracting the average MFI of three technical replicates of unstained (no primary antibody) cells.

[3] = target: T3, Construct 6 (NaPi2b del 317-333) (human, UniProt O95436 1-690); test: flow cytometry, HEK293-6e cells transfected with Construct 6
T3 construct: Deletion construct on HEK293-6e cells; also called CL_#29919
T3 sequence: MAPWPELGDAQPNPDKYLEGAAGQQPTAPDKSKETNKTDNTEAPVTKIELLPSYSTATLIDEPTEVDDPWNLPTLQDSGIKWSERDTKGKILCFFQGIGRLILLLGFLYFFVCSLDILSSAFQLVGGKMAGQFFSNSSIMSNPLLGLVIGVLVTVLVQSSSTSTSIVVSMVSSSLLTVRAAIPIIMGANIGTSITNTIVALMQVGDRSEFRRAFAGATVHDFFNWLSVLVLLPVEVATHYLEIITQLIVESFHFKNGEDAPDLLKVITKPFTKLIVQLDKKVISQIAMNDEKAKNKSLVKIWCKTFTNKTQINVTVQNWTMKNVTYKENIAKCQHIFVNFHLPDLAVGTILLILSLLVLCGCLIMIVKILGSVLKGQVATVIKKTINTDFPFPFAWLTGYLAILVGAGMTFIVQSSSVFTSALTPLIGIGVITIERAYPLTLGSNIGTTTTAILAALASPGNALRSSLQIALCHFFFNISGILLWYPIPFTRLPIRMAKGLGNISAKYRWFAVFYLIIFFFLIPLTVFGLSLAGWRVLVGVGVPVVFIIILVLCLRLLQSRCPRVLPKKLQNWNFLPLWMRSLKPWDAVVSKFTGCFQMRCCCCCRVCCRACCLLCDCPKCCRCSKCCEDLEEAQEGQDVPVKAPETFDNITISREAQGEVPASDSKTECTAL
Experimental: as §1

[4] = target: T4, human FcγR I CD64 (Sino Biological Inc. 10256-H08H) (human, UniProt P12314 16-288); test: SPR (Biacore T200), antibody captured on protein A, FcγR as analyte, multicycle, 1:1 fit
T4 construct: Bought reagent
Experimental: (§2) Approximately 400-600 RUs of each antibody (2 μg/mL) were captured on the protein A surface on flow cell 2, 3 and 4 by injecting at 10 μL/min for 60 s. Flow cell 1 was used as a reference surface. […] Each in-house FcγR with five concentrations were flowed as analyte using single-cycle kinetics strategy. The flow rate of FcγRs was 50 L/min with contact time of 40 sec and dissociation time of 120 sec. For the high affinity FcγRI CD64, multicycle kinetics were applied. The flow rate of the analyte was 100 L/min with contact time of 100 sec and dissociation time of 650 sec. Blank buffer control was injected using the same flow rate and contact time for each cycle. Surface regeneration was accomplished using 10 mM glycine-HCl, pH 1.5 (Cytiva©, BR100354) for 30 sec with a flow rate of 50 μL/min after each cycle. Binding constants and the maximum observed binding signal (Rmax) were determined using the Biacore™ T200 Evaluation software (version 3.0; GE Healthcare). For single-cycle kinetics, blank-subtracted sensorgrams were analyzed using steady state affinity fitting model. For multicycle kinetics, results were fit to the 1:1 Langmuir binding model.

[5] = target: T5, human FcγR IIA H131 CD32aH (v5774) (human, UniProt P12318 34-217, limits assumed); test: SPR (Biacore T200), antibody captured on protein A, FcγR as analyte, single-cycle, steady-state fit;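 further: five FcγR concentrations per single cycle, 40 s association then 120 s dissociation, responses corrected against a reference flow cell and blank buffer injections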
T5 construct: In-house reagent
T5 sequence (looked up): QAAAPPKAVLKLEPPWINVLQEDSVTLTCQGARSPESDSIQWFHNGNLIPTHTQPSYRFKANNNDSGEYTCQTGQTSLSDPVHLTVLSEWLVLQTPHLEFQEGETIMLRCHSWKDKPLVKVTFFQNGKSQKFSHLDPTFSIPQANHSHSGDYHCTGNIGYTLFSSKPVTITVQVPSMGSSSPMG
Experimental: as §2

[6] = target: T6, human FcγR IIB Y160 CD32bY (v5777) (human, UniProt P31994 43-217, limits assumed); test: as above
T6 construct: In-house reagent
T6 sequence (looked up): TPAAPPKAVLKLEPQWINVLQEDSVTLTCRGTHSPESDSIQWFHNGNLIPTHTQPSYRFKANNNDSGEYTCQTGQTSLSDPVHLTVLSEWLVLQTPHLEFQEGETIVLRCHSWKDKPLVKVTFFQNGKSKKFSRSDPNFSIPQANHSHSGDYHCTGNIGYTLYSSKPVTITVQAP
Experimental: as §2

[7] = target: T7, human FcγR IIIA V159 CD16aV (v5773) (human, UniProt P08637 17-208, limits assumed); test: as above
T7 construct: In-house reagent
Experimental: as §2

[8] = target: T8, human FcγR IIA R131 CD32aR (v5775) (human, UniProt P12318 34-217, limits assumed); test: as above
T8 construct: In-house reagent
T8 sequence (looked up): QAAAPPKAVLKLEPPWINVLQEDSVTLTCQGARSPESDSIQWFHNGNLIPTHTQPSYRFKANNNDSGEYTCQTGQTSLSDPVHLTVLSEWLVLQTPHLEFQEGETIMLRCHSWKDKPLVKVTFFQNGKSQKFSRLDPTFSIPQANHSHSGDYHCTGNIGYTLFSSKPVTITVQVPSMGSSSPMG
Experimental: as §2

Biotinylated human FcRn = target: T9, Biotinylated human FcRn (human, UniProt P55899 24-297; P61769 21-119, limits assumed, biotinylated (site not stated)); test: SPR (Biacore T200), biotinylated FcRn on neutravidin, antibody as analyte, pH 5.9, steady-state fit
T9 construct: also called Biotinlated human FcRn; human neonatal fragment crystallizable receptor (FcRn)
T9 sequence (P55899 24-297 limits assumed, chain 1 of 2): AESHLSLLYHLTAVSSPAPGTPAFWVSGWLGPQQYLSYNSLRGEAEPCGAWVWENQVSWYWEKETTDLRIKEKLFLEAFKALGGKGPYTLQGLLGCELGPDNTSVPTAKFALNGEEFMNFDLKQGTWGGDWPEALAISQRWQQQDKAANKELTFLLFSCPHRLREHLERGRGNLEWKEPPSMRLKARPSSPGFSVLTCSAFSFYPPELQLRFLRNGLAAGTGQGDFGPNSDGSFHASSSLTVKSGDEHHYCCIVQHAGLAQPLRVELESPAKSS
T9 sequence (P61769 21-119 limits assumed, chain 2 of 2): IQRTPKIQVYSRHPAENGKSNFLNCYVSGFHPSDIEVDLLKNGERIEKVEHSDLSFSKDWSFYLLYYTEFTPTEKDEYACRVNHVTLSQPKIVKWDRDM

T4 sequence (P12314 16-288 limits assumed): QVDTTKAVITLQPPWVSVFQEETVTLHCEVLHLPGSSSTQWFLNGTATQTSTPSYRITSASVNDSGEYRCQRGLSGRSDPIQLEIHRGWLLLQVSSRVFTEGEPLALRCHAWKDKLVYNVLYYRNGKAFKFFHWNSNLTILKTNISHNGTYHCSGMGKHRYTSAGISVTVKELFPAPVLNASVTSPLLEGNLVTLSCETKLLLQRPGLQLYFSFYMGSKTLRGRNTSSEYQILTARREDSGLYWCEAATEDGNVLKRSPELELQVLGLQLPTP
T7 sequence (P08637 17-208 F176V limits assumed): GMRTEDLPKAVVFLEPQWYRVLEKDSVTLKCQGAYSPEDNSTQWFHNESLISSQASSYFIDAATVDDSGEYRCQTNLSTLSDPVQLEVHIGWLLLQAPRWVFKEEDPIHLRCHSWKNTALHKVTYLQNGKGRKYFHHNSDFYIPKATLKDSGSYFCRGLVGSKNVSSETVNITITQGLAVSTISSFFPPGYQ

| Binder | binding result [1] | binding result [2] | binding result [3] | Binding percentage [4] [%] | Kd [4] [µM] | Binding percentage [5] [%] | Kd [5] [µM] | Binding percentage [6] [%] | Kd [6] [µM] | Binding percentage [7] [%] | Kd [7] [µM] | Binding percentage [8] [%] | Kd [8] [µM] | Binding percentage (Biotinylated human FcRn) [%] | Kd (Biotinylated human FcRn) [µM] |
| --- | --- | --- | --- | --- | --- | --- | --- | --- | --- | --- | --- | --- | --- | --- | --- |
| B1 | no binding (tested: 200 nM) | no binding (tested: 200 nM) | no binding (tested: 200 nM) | – | – | – | – | – | – | – | – | – | – | – | – |
| B2 | – | – | – | 6.4 | 0.00379 | 63.8 | 29.2 | 53.2 | 48.7 | 41.5 | 4.02 | 58 | 29.3 | 27 | 0.132 |
